The values below come from article PMC10062032 (ACS Nano, 2023).

This assay concerns the target T1, Methylococcus capsulatus (Bath) soluble methane monooxygenase hydroxylase (sMMOH), alpha subunit (Methylococcus capsulatus (Bath), UniProt P22869 1-527).
T1 sequence (looked up): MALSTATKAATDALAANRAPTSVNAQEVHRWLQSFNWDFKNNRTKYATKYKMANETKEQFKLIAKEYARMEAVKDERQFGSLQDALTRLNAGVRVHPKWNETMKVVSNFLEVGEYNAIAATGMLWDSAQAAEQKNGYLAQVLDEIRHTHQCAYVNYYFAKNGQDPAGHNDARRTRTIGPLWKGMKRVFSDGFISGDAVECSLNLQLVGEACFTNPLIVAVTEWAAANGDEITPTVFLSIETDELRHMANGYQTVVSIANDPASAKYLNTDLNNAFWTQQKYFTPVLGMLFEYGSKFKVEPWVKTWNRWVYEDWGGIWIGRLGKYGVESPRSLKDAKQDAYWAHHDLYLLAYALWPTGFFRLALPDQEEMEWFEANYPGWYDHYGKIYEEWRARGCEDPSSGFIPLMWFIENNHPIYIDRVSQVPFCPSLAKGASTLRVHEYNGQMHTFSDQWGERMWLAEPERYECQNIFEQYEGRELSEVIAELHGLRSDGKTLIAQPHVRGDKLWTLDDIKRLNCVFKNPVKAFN
Put plainly: cryo-EM structure.

B1: Methylococcus capsulatus (Bath) soluble methane monooxygenase hydroxylase (sMMOH), beta subunit (natural protein, UniProt P18798 1-389, looked up)
chain: MSMLGERRRGLTDPEMAAVILKALPEAPLDGNNKMGYFVTPRWKRLTEYEALTVYAQPNADWIAGGLDWGDWTQKFHGGRPSWGNETTELRTVDWFKHRDPLRRWHAPYVKDKAEEWRYTDRFLQGYSADGQIRAMNPTWRDEFINRYWGAFLFNEYGLFNAHSQGAREALSDVTRVSLAFWGFDKIDIAQMIQLERGFLAKIVPGFDESTAVPKAEWTNGEVYKSARLAVEGLWQEVFDWNESAFSVHAVYDALFGQFVRREFFQRLAPRFGDNLTPFFINQAQTYFQIAKQGVQDLYYNCLGDDPEFSDYNRTVMRNWTGKWLEPTIAALRDFMGLFAKLPAGTTDKEEITASLYRVVDDWIEDYASRIDFKADRDQIVKAVLAGLK
B1: the binding result is recorded as “binds”.
